This test addresses FKBP-caspase-8 (Site-1 mutant) (human) (UniProt Q14790).

Consider “FRB-FLIPL (wt) (from UniProt O15519 188-480)”, for which the activity after heterodimerization (with AP21967), relative to Mature caspase-8 amounted to 20%.
